Data on four proteins can be found in publication doi:10.1101/2021.03.09.434456 (bioRxiv, 2021).

Series [1] deals with the molecule itself. Description: AUC + SEC.
Series [2] concerns the molecule itself. The series can be described thus: AUC.
Series [3] deals with the molecule itself. The series can be described thus: crystal structure.

As usually defined, the koff is a measure of how fast the partners let go of each other. For orientation: Kd means a measure of binding affinity in units of concentration. Low readings indicate tighter binding, high ones weaker binding. For orientation: stoichiometry N means a count of units in the complex or per binding partner.

B1: mouse Kirrel2 WT ectodomain (domain or fragment, UniProt Q7TSU7 20-507, looked up)
chain: SPHFLQQPEDMVVLLGEEARLPCALGAYRGLVQWTKDGLALGGERDLPGWSRYWISGNSASGQHDLHIKPVELEDEASYECQASQAGLRSRPAQLHVMVPPEAPQVLGGPSVSLVAGVPGNLTCRSRGDSRPAPELLWFRDGIRLDGSSFHQTTLKDKATGTVENTLFLTPSSHDDGATLICRARSQALPTGRDTAVTLSLQYPPMVTLSAEPQTVQEGEKVTFLCQATAQPPVTGYRWAKGGSPVLGARGPRLEVVADATFLTEPVSCEVSNAVGSANRSTALEVLYGPILQAKPKSVSVDVGKDASFSCVWRGNPLPRITWTRMGGSQVLSSGPTLRLPSVALEDAGDYVCRAEPRRTGLGGGKAQARLTVNAPPVVTALQPAPAFLRGPARLQCVVFASPAPDSVVWSWDEGFLEAGSLGRFLVEAFPAPEVEGGQGPGLISVLHISGTQESDFTTGFNCSARNRLGEGRVQIHLGRRDLLPTVR
As for B1, the koff in series [1] was over 0.001 s⁻¹. In series [2], the dissociation constant (Kd) is 900 nM and the “stoichiometry N” value is 2.

B2: mouse Kirrel3 D1 (domain or fragment)
chain: VYSFSQQPQDQVVVSGQPVTLLCAIPEYDGFVLWIKDGLALGVGRDLSSYPQYLVVGNHLSGEHHLKILRAELQDDAVYECQAIQAAIRSRPARLTVLVP
Take B2: the binding result in series [3] is recorded as “binds”.

B3: mouse Kirrel2 D1 (domain or fragment)
chain: PHFLQQPEDMVVLLGEEARLPCALGAYRGLVQWTKDGLALGGERDLPGWSRYWISGNSASGQHDLHIKPVELEDEASYECQASQAGLRSRPAQLHVMVP
As to B3, the binding result in series [3] was “binds”.

B4: mouse Kirrel3 WT ectodomain (domain or fragment, UniProt Q8BR86 22-535, looked up)
chain: LQKRGCCLVLGYMAKDKFRRMNEGQVYSFSQQPQDQVVVSGQPVTLLCAIPEYDGFVLWIKDGLALGVGRDLSSYPQYLVVGNHLSGEHHLKILRAELQDDAVYECQAIQAAIRSRPARLTVLVPPDDPIILGGPVISLRAGDPLNLTCHADNAKPAASIIWLRKGEVINGATYSKTLLRDGKRESIVSTLFISPGDVENGQSIVCRATNKAIPGGKETSVTIDIQHPPLVNLSVEPQPVLEDNIVTFHCSAKANPAVTQYRWAKRGHIIKEASGELYRTTVDYTYFSEPVSCEVTNALGSTNLSRTVDVYFGPRMTSEPQSLLVDLGSDAVFSCAWIGNPSLTIVWMKRGSGVVLSNEKTLTLKSVRQEDAGKYVCRAVVPRVGAGEREVTLTVNGPPIISSTQTQHALHGEKGQIKCFIRSTPPPDRIAWSWKENVLESGTSGRYTVETVNTEEGVISTLTISNIVRADFQTIYNCTAWNSFGSDTEIIRLKEQGSEMKSGAGLEAESVPMA
Consider B4, for which the koff in series [1] was over 0.001 s⁻¹. Besides, in series [2], the Kd came to 210 nM and the “stoichiometry N” value was 2.
